Results as given in patent EP4763862A1 (Beijing Tide Pharmaceutical Co., Ltd., dated 2026).

T1: B7-H3 on NCI-H446 cells (UniProt Q5ZPR3 29-534)
T1 construct: whole, on cells
T1 sequence (looked up): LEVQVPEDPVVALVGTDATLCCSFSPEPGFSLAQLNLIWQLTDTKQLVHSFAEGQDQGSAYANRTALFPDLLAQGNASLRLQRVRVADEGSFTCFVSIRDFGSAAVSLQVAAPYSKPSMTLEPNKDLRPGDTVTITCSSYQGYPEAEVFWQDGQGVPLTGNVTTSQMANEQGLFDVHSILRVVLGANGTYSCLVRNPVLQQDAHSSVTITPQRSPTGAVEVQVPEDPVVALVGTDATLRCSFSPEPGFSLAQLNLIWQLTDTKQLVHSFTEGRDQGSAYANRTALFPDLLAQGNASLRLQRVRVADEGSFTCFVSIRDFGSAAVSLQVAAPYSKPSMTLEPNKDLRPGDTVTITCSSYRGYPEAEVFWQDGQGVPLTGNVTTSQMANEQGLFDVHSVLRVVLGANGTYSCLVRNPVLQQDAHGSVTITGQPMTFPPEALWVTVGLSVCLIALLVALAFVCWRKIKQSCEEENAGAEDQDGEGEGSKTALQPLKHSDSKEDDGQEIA

T2: PD-L2 (UniProt Q9BQ51 20-219)
T2 construct: not shown: His tag
T2 sequence (looked up): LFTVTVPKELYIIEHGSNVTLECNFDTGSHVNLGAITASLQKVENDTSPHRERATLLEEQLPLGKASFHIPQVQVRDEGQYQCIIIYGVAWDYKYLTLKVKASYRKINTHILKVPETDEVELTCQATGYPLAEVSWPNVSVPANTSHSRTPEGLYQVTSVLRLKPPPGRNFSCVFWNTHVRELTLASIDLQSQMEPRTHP

T3: B7-H4 (UniProt Q7Z7D3 29-258, limits assumed)
T3 construct: not shown: His tag
T3 sequence (looked up): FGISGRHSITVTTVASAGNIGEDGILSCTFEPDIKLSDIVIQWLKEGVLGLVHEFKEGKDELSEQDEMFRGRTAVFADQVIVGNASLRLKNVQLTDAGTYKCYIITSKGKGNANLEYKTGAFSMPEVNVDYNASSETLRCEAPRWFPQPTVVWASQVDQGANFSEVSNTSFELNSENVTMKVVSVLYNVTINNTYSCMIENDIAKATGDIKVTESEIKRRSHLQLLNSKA

T4: B7-1 (UniProt P33681 35-242)
T4 construct: not shown: His tag
T4 sequence (looked up): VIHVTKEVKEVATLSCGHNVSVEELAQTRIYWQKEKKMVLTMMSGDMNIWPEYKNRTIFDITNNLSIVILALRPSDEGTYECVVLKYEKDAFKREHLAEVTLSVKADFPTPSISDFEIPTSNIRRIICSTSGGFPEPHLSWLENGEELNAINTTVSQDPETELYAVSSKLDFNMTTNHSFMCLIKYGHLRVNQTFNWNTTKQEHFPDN

T5: B7-H5 (UniProt Q9H7M9 33-194)
T5 construct: The name B7-H5 is ambiguous in the literature; not shown: His tag
T5 sequence (looked up): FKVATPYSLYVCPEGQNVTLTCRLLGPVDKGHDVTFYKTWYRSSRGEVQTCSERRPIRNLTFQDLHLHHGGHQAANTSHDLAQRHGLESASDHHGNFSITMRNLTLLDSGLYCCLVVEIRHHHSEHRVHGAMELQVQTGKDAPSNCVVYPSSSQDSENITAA

T6: B7-2 (UniProt P42081 26-247, limits assumed)
T6 construct: not shown: His tag
T6 sequence (looked up): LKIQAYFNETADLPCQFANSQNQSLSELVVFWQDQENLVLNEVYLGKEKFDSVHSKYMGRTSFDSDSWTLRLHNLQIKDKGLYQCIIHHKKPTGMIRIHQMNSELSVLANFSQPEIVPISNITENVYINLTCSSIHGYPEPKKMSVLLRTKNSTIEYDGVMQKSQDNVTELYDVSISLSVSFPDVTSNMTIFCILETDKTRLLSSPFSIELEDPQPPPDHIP

T7: B7-H2 (UniProt O75144 19-258, limits assumed)
T7 construct: not shown: His tag
T7 sequence (looked up): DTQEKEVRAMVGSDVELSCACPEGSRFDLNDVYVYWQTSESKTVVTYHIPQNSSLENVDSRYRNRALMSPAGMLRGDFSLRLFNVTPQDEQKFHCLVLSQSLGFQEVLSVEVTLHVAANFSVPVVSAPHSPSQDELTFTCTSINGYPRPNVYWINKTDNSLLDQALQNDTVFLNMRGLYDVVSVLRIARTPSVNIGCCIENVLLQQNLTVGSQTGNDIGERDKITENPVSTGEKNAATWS

T8: B7-H7 (UniProt Q9UM44 23-344)
T8 construct: not shown: His tag
T8 sequence (looked up): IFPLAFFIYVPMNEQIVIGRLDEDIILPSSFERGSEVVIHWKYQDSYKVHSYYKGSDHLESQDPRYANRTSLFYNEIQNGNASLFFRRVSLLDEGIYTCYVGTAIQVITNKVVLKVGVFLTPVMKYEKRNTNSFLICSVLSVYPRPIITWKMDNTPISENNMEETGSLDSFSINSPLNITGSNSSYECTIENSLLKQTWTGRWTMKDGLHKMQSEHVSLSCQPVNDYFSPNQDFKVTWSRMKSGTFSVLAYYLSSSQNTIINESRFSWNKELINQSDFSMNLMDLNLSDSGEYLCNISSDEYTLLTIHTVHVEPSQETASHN

T9: B7-H6 (UniProt Q68D85 25-262)
T9 construct: not shown: His tag
T9 sequence (looked up): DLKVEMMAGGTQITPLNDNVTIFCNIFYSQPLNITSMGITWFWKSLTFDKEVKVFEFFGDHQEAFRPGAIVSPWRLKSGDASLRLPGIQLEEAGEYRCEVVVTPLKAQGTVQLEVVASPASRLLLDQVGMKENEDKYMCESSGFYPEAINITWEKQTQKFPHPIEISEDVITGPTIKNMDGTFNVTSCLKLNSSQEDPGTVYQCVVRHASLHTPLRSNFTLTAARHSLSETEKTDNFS


Key:
B7-H3 on NCI-H446 cells = target: T1, B7-H3 on NCI-H446 cells; assay: flow cytometry on NCI-H446 cells, goat anti-human Fc secondary
B7-H3 Cyno-His = target: T10, B7-H3 Cyno-His (cynomolgus monkey); assay: SPR, Biacore 8K, antibody captured by anti-human IgG Fc on CM5, B7-H3 Cyno-His as analyte, 1:1 model
T10 construct: also called cynomolgus monkey B7-H3

PD-L2 = target: T2, PD-L2; assay: ELISA, His-tagged antigen coated at 1 µg/mL, HRP-Protein A detection
B7-H4 = target: T3, B7-H4; assay: as above
B7-1 = target: T4, B7-1; assay: as above
B7-H5 = target: T5, B7-H5; assay: as above
B7-2 = target: T6, B7-2; assay: as above
B7-H2 = target: T7, B7-H2; assay: as above
hB7-H1 (PD-L1) = target: T11, hB7-H1 (PD-L1) (human, UniProt Q9NZQ7 19-238); assay: as above
T11 construct: Species read from the printed prefix h; not shown: His tag

B7-H7 = target: T8, B7-H7; assay: as above
B7-H6 = target: T9, B7-H6; assay: as above

T11 sequence (Q9NZQ7 19-238 limits assumed): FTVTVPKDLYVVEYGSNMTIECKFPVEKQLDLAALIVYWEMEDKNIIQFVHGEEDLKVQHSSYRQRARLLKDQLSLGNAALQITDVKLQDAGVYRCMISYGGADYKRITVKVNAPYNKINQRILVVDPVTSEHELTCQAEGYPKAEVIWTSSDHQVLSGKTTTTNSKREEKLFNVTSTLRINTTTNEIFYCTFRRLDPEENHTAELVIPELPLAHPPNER

EC50 (B7-H3 on NCI-H446 cells)	Kd (B7-H3 Cyno-His)	koff (B7-H3 Cyno-His)	kon (B7-H3 Cyno-His)	Binder	binding result (PD-L2)	binding result (B7-H4)	binding result (B7-1)	binding result (B7-H5)	binding result (B7-2)	binding result (B7-H2)	binding result (hB7-H1 (PD-L1))	binding result (B7-H7)	binding result (B7-H6)
4.66 nM	3.87 nM	5.82e-05 s⁻¹	15100 M⁻¹ s⁻¹	cAb1-z3-p7 (antibody, human IgG1, kappa, V domains shown, Humanized from 48-B4-F4-E4; Human IgG1 / kappa; also called cAbl-z3-p7) VH: EVQLVESGGGLVKPGGSLRLSCAASGFTFSSYGMSWVRQAPGKRLEWVSSISGSGSYTYYPDSLKGRFTISRDNAKNSLYLQMNSLRAEDTAVYYCARQQGYWYFDVWGQGTTVTVSS VL: DVVMTQTPLSLPVTPGEPASISCRASQSLASSYGKTYLSWYLQKPGQSPQLLIYGISNRFSGVPDRFSGSGSGTDFTLKISRVEAEDVGVYYCLHGTHQPLTFGQGTKLEIKR	no binding (tested: starting concentration 10 µg/ml)	no binding (tested: starting concentration 10 µg/ml)	no binding (tested: starting concentration 10 µg/ml)	no binding (tested: starting concentration 10 µg/ml)	no binding (tested: starting concentration 10 µg/ml)	no binding (tested: starting concentration 10 µg/ml)	no binding (tested: starting concentration 10 µg/ml)	no binding (tested: starting concentration 10 µg/ml)	no binding (tested: starting concentration 10 µg/ml)
3.69 nM	3.9 nM	6.17e-05 s⁻¹	15800 M⁻¹ s⁻¹	cAb1-z5-p7 (antibody, human IgG1, kappa, V domains shown, Humanized from 48-B4-F4-E4; Human IgG1 / kappa; also called cAbl-z5-p7) VH: EVQLVESGGGLVKPGGSLRLSCAASGFTFSSYGMSWVRQAPGKRLEWVASISGSGSYTYYPDSLKGRFTISRDNAKNSLYLQMNSLRAEDTAVYYCARQQGYWYFDVWGQGTTVTVSS VL: DVVMTQTPLSLPVTPGEPASISCRASQSLASSYGKTYLSWYLQKPGQSPQLLIYGISNRFSGVPDRFSGSGSGTDFTLKISRVEAEDVGVYYCLHGTHQPLTFGQGTKLEIKR	no binding (tested: starting concentration 10 µg/ml)	no binding (tested: starting concentration 10 µg/ml)	no binding (tested: starting concentration 10 µg/ml)	no binding (tested: starting concentration 10 µg/ml)	no binding (tested: starting concentration 10 µg/ml)	no binding (tested: starting concentration 10 µg/ml)	no binding (tested: starting concentration 10 µg/ml)	no binding (tested: starting concentration 10 µg/ml)	no binding (tested: starting concentration 10 µg/ml)
9.7 nM	7.86 nM	7.68e-05 s⁻¹	9770 M⁻¹ s⁻¹	cAb1-z0-p7 (antibody, human IgG1, kappa, V domains shown, Humanized from 48-B4-F4-E4; Human IgG1 / kappa) VH: EVQLVESGGGLVKPGGSLRLSCAASGFTFSSYGMSWVRQAPGKGLEWVSSISGSGSYTYYPDSLKGRFTISRDNAKNSLYLQMNSLRAEDTAVYYCARQQGYWYFDVWGQGTTVTVSS VL: DIVMTQTPLSLPVTPGEPASISCRASQSLASSYGKTYLSWYLQKPGQSPQLLIYGISNRFSGVPDRFSGSGSGTDFTLKISRVEAEDVGVYYCLHGTHQPLTFGQGTKLEIKR	no binding (tested: starting concentration 10 µg/ml)	no binding (tested: starting concentration 10 µg/ml)	no binding (tested: starting concentration 10 µg/ml)	no binding (tested: starting concentration 10 µg/ml)	no binding (tested: starting concentration 10 µg/ml)	no binding (tested: starting concentration 10 µg/ml)	no binding (tested: starting concentration 10 µg/ml)	no binding (tested: starting concentration 10 µg/ml)	no binding (tested: starting concentration 10 µg/ml)
